In one test the test system is TPR domains. As to conditions: ref Scheufler et al., 2000; cited from earlier work. From the text: The orientation of Hsp peptides in TPR structures varies between proteins. The conserved clamp mode of interactions is consistent, but there are some differences observed for the N-terminal parts of the peptides, which is not surprising given that the carboxylate clamp is the fixed point of attachment. The PTVEEVD peptide adopts an extended conformation within the Sgt2_TPR groove similar to that observed in the structure of the HOP TPR1/GPTIEEVD complex (Scheufler et al., [2000]). In contrast, structures of GPTIEEVD/Chip TPR [PDB: 3Q49 (Wang L. et al., [2011]) and PDB: 4KBQ Zhang et al., [2005 ...

The target in test [1] is Ybr137wp (Saccharomyces cerevisiae) (UniProt P38276). Description: ITC. Particulars: cited from earlier work.
Chain of Ybr137wp (Saccharomyces cerevisiae) (P38276 whole entry, the tested form may be a part): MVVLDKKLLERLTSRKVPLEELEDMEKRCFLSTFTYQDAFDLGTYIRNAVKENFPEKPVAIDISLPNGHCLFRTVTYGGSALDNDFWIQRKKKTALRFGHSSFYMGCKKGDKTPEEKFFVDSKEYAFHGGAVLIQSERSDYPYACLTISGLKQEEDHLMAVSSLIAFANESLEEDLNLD
Test [2] deals with T1, Sgt2_TPR (residues 93–229) (Saccharomyces cerevisiae, UniProt Q12118).
T1 construct: were added to Sgt2_TPR (residues 93–229) at 50 μM in the reaction cell; thioredoxin A (N, cleaved yes); hexahistidine tag (N, cleaved yes); made in house; host or cells: E. coli BL21 (DE3)
T1 sequence (Q12118 93-229): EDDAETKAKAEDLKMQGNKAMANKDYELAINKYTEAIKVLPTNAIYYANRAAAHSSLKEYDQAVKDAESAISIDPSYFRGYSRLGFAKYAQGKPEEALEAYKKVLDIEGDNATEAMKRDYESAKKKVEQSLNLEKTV
Nature of the test: ITC binding of peptides to Sgt2_TPR (93–229). The arrangement: species or system S. cerevisiae. As to conditions: 25°C, pH 6.0, from ΔG = −RT·lnKb and ΔG = ΔH − TΔS.

Another test concerns the target T2, Sgt2_TPR (93–229) (S. cerevisiae, UniProt Q12118 93-229).
T2 construct: Small glutamine-rich tetratricopeptide repeat-containing protein 2 (Sgt2), S. cerevisiae, TPR domain, residues 93-229; 15N-labelled for the NMR titrations; Cloned from synthetic cDNA into the BamHI/XhoI sites of a modified pET28; also called TPR domain of Sgt2; longer construct of Sgt2_TPR; not shown: thioredoxin A, N-terminal, cleaved; His6, N-terminal, cleaved
T2 sequence (looked up): T1 sequence (Q12118 93-229)
Description: ITC; 20 injections of 2 uL of 500 uM peptide into 50 uM Sgt2_TPR (93-229) in the cell; 10 mM potassium phosphate pH 6.0, 100 mM NaCl, 250 uM TCEP, 25°C. Particulars: both partners purified. For orientation: Isothermal titration calorimetry measures the heat released or taken up as one component is titrated into another.

With EEVD, the “Fold reduction of affinity on trimming the peptide sequence to EEVD only” value with TPR domains is recorded as “at least 10 times”. A word on the Kd: it is the free concentration of one partner at which half of the binding sites on the other are occupied at equilibrium, for simple one-to-one binding. For Sgt2 TPR (from UniProt Q12118), the Kd in test [1] was 1380 nM.

On to “MEEVD [peptide corresponding to C-terminal of Hsp82; residues 705–709]”, for which the “ΔS (reaction entropy) by ITC” value in test [2] is listed as 10.9 cal/mol·deg.

B1: PTVEEVD peptide (C-terminus of Ssa1) (peptide)
peptide: PTVEEVD
notes: Heat shock protein Ssa1 (yeast Hsp70), last seven amino acids; printed as residues 634-640; also called C-terminal peptide of Ssa1; Ssa1 derived PTVEEVD peptide; source: synthetic peptide, bought: Alpha BioScience (Birmingham, UK)
For the molecule B1, in the test with Sgt2_TPR (93–229), the affinity, expressed as Kd, was 9040 ± 50 nM and the dH was -6.72 ± 0.07 kcal/mol.

B2: MEEVD peptide (C-terminus of Hsp82) (peptide)
peptide: MEEVD
notes: Hsp82 (yeast Hsp90), C-terminal residues 705-709; the abstract and discussion call the parent Hsc82; also called C-terminal fragment of Hsp82; Hsc82 C-terminal peptide; source: synthetic peptide, bought: Alpha BioScience (Birmingham, UK)
As to B2, in the test with Sgt2_TPR (93–229), the Kd stood at 2950 ± 310 nM and the dH is -4.51 ± 0.03 kcal/mol.

B3: SLEEDLNLD peptide (C-terminus of Ybr137wp) (peptide)
peptide: SLEEDLNLD
notes: Ybr137wp, yeast, C-terminal residues 171-179; also called Ybr137wp-derived peptide; source: synthetic peptide, bought: Alpha BioScience (Birmingham, UK)
For B3, in the test with Sgt2_TPR (93–229), the Kd stood at 1530 ± 50 nM and the dH is -7.07 ± 0.99 kcal/mol.

These data come from publication PMC5641545, “Structure and Interactions of the TPR Domain of Sgt2 with Yeast Chaperones and Ybr137wp” (Frontiers in Molecular Biosciences, 2017).
